Experimental data as given in article PMC7110113, “Termination of non‐coding transcription in yeast relies on both an RNA Pol II CTD interaction domain and a CTD‐mimicking region in Sen1” (The EMBO Journal, 2020).

B1: Nrd1 CID [S. cerevisiae] / Sen1 NIM peptide, FAM-labelled [modified: 5,6-carboxyfluorescein (FAM) on the N-terminus; 5,6-carboxyfluorescein (FAM) on the N-terminus] [S. cerevisiae] (parent complex)
chain 1: MQQDDDFQNFVATLESFKDLKSGISGSRIKKLTTYALDHIDIESKIISLIIDYSRLCPDSHKLGSLYIIDSIGRAYLDETRSNSNSSSNKPGTCAHAINTLGEVIQELLSDAIAKSNQDHKEKIRMLLDIWDRSGLFQKSYLNAIRSKCFAMD
chain 2: DDDEDDYTPSIS

Variants of: B1
Assay: fluorescence anisotropy (FA); parent: 1.2e+03 nM

Variant	Kd [µM]
chain 1 MQQDDDFQNFVATLESFKDLKSGISGSRIKKLTTYALDHIDIESKIISLIIDYSRLCPDSHKLGSLYIIDSIGRAYLDETRSNSNSSSNKPGTCAHAINTLGEVIQELLSDAIAKSNQDHKEKIRMLLDAWDRSGLFQKSYLNAIRSKCFAMD	7.38
